B1: General receptor for phosphoinositides 1-associated scaffold protein (Rattus norvegicus (Rat)), Q8R4T5 (parent)
chain: MTLRRLRKLQQKEEATAAPDLAGRAPDSEAARAAPTPSGPPAAAAPPGAPGDELYAALEDYHPAELYRALAVSGGTLPRRKGSGFRWKNFTQSPEQQRKVLTLEKGDNQTFGFEIQTYGLHHREEQRVEMVTFVCRVHESSPAQLAGLTPGDTIASVNGLNVEGIRHREIVDIIKASGNVLRLETLYGTSIRKAELEARLQYLKQTLYEKWGEYRSLMVQEQRLVHGLVVKDPSIYDTLESVRSCLYGAGLLPGSLPFGPLLAAPGGARGGSRRAKGDTDDAVYHTCFFGGAEPQALPPPPPPARAPGPGSAETPASVLCPAPRATLSRSASVRCAGPGGGGGGGAPGALWTEAREQALCGAGLRKTKYRSFRRRLLKFIPGLNRSLEEEESQL

Variants of: B1
Conditions: with grm5_rat Grm5, P31424
Sequence of grm5_rat Grm5, P31424 (P31424 whole entry, looked up): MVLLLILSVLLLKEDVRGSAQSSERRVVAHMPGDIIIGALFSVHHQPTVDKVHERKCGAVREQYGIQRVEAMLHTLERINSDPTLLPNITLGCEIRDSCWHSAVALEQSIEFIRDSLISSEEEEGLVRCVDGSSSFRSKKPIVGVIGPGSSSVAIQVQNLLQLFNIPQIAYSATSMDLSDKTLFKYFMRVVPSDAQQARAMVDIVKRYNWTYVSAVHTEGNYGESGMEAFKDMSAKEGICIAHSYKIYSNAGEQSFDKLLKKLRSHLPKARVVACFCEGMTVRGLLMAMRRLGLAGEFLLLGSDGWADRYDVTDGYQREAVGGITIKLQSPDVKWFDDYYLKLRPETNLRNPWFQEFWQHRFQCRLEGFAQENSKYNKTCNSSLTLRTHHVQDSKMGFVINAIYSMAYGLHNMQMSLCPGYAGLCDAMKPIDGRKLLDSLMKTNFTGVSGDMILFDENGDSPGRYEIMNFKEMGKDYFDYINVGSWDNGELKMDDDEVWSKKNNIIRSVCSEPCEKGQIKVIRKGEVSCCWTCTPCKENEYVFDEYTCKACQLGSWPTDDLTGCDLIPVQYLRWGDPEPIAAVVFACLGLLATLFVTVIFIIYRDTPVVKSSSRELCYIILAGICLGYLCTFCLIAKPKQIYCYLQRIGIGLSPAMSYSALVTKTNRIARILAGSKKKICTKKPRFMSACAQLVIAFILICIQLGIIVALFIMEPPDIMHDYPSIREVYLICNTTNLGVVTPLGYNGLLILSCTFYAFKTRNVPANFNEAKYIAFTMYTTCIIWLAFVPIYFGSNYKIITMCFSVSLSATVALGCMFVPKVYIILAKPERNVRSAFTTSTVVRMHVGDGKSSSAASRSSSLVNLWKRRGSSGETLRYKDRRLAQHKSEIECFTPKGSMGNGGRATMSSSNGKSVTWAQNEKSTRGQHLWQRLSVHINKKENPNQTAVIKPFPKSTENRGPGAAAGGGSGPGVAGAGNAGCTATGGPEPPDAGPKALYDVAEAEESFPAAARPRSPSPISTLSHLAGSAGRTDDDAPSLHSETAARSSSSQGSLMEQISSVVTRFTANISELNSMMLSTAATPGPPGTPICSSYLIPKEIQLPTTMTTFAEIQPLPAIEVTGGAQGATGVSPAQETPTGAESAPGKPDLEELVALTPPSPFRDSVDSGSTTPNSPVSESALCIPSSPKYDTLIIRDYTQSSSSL

Variant | effect of a mutation on the interaction
E114K | decreasing interaction
